Test results from US20110301093.

Key:
[1] = molecular target: T1, mutant BH3 peptide in which Thr119 was substituted to alanine (T119A)
T1 chain: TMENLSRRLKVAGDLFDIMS

[2] = molecular target: T2, peptide corresponding to Beclin's BH3 domain (aa 108-127)
T2 chain: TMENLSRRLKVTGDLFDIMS

Sequence of Flag-tagged Beclin-1 (chain, as listed by the source): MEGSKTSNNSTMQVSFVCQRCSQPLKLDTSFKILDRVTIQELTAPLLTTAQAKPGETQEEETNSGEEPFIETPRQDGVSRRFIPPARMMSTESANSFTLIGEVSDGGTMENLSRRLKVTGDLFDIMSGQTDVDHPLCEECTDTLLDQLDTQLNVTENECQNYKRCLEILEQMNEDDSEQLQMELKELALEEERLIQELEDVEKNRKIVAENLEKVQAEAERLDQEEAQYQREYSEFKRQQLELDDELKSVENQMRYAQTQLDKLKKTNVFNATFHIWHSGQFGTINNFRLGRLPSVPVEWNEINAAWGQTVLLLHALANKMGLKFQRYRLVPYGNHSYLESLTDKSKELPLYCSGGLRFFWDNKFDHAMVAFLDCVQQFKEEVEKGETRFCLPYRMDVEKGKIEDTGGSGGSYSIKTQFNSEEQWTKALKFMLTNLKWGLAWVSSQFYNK
Sequence of GST-Beclin-1 (chain, as listed by the source): as above

B1: DAPk's catalytic domain (DK1) (protein)
chain: MTVFRQENVDDYYDTGEELGSGQFAVVKKCREKSTGLQYAAKFIKKRRTKSSRRGVSREDIEREVSILKEIQHPNVITLHEVYENKTDVILILELVAGGELFDFLAEKESLTEEEATEFLKQILNGVYYLHSLQIAHFDLKPENIMLLDRNVPKPRIKIIDFGLAHKIDFGNEFKNIFGTPEFVAPEIVNYEPLGLEADMWSIGVITYILLSGASPFLGDTKQETLANVSAVNYEFEDEYFSNTSALAKDFIRRLLVKDPKKRMTIQDSLQHPWIKPKDTQQALS
- peptide phosphorylation, filter assay [1]: Changing Thr119 to alanine strongly inhibited the extent of peptide phosphorylation
- peptide phosphorylation, filter assay (total counts against substrate concentration) [2]: DAPk phosphorylates Beclin's BH3 peptide in a dose-dependent manner

B2: Flag-tagged DAPk (protein)
chain: MTVFRQENVDDYYDTGEELGSGQFAVVKKCREKSTGLQYAAKFIKKRRTKSSRRGVSREDIEREVSILKEIQHPNVITLHEVYENKTDVILILELVAGGELFDFLAEKESLTEEEATEFLKQILNGVYYLHSLQIAHFDLKPENIMLLDRNVPKPRIKIIDFGLAHKIDFGNEFKNIFGTPEFVAPEIVNYEPLGLEADMWSIGVITYILLSGASPFLGDTKQETLANVSAVNYEFEDEYFSNTSALAKDFIRRLLVKDPKKRMTIQDSLQHPWIKPKDTQQALSRKASAVNMEKFKKFAARKKWKQSVRLISLCQRLSRSFLSRSNMSVARSDDTLDEEDSFVMKAIIHAINDDNVPGLQHLLGSLSNYDVNQPNKHGTPPLLIAAGCGNIQILQLLIKRGSRIDVQDKGGSNAVYWAARHGHVDTLKFLSENKCPLDVKDKSGEMALHVAARYGHADVAQLLCSFGSNPNIQDKEEETPLHCAAWHGYYSVAKALCEAGCNVNIKNREGETPLLTASARGYHDIVECLAEHGADLNACDKDGHIALHLAVRRCQMEVIKTLLSQGCFVDYQDRHGNTPLHVACKDGNMPIVVALCEANCNLDISNKYGRTPLHLAANNGILDVVRYLCLMGASVEALTTDGKTAEDLARSEQHEHVAGLLARLRKDTHRGLFIQQLRPTQNLQPRIKLKLFGHSGSGKTTLVESLKCGLLRSFFRRRRPRLSSTNSSRFPPSPLASKPTVSVSINNLYPGCENVSVRSRSMMFEPGLTKGMLEVFVAPTHHPHCSADDQSTKAIDIQNAYLNGVGDFSVWEFSGNPVYFCCYDYFAANDPTSIHVVVFSLEEPYEIQLNQVIFWLSFLKSLVPVEEPIAFGGKLKNPLQVVLVATHADIMNVPRPAGGEFGYDKDTSLLKEIRNRFGNDLHISNKLFVLDAGASGSKDMKVLRNHLQEIRSQIVSVCPPMTHLCEKIISTLPSWRKLNGPNQLMSLQQFVYDVQDQLNPLASEEDLRRIAQQLHSTGEINIMQSETVQDVLLLDPRWLCTNVLGKLLSVETPRALHHYRGRYTVEDIQRLVPDSDVEELLQILDAMDICARDLSSGTMVDVPALIKTDNLHRSWADEEDEVMVYGGVRIVPVEHLTPFPCGIFHKVQVNLCRWIHQQSTEGDADIRLWVNGCKLANRGAELLVLLVNHGQGIEVQVRGLETEKIKCCLLLDSVCSTIENVMATTLPGLLTVKHYLSPQQLREHHEPVMIYQPRDFFRAQTLKETSLTNTMGGYKESFSSIMCFGCHDVYSQASLGMDIHASDLNLLTRRKLSRLLDPPDPLGKDWCLLAMNLGLPDLVAKYNTSNGAPKDFLPSPLHALLREWTTYPESTVGTLMSKLRELGRRDAADFLLKASSVFKINLDGNGQEAYASSCNSGTSYNSISSVVSR
- in vitro kinase assay, phosphorylation ([γ-33P]ATP, autoradiogram) (Flag-tagged Beclin-1): The phosphorylation by Flag-tagged (60 ng) DAPk was also observed when Flag-tagged Beclin-1 (250 ng), immunoprecipitated from HEK293T cells, was used as a substrate
- in vitro kinase assay, phosphorylation ([γ-33P]ATP, autoradiogram) (GST-Beclin-1): GST-Beclin-1, but not GST alone, was phosphorylated by DAPk
